Results published in patent US6509033B1, “Immunomodulatory peptides” (President and Fellows of Harvard College, priority 1992, dated 2003).
pKi: −log10 of the molar value. Ends that are not written are not given here.

Biological target: T1, HLA-DR1 (Homo sapiens, UniProt P01903+P01911, A100R/D57E/F55L/F60I/F76Y/I96L/L162R/M171V/P40L/Q125E/R42F/V115G/Y59C)
T1 construct: made in house; host or cells: Sf9 insect cells
Test: Competition of synthetic peptides against 125I-labeled HA 307-319 for binding to empty HLA-DR1 (Ki)

| pKi (read-out: Ki vs HA 307-319, concentration inhibiting 50% of 125I-labeled HA 307-319 binding, 10 nM labeled peptide, 10 nM empty HLA-DR1 from Sf9 insect cells, pH 7.2, 37° C., 85 hours) | Sequence | relative binding affinity to DR1 among competitor peptides (competition against HA peptide, empty DR1, first approximation) |
| --- | --- | --- |
| – | KMRMATPLLMQALP (MRMATPLLMQALPM) [Ii 107-120, invariant chain peptide named in b65] | highest affinity of all the competitor peptides measured |
| > 8.00 | KMRMATPLLMQALPM [Ii 106-120] | – |
